Assay results published in patent US20240368280A1 (DEUTSCHES KREBSFORSCHUNGSZENTRUM STIFTUNG DES FFENTLICHEN …, published 2024).

Experiments:
Human Fcγ receptor IIIb [1] = target: T1, Human Fcγ receptor IIIb (human, UniProt O75015 20-208, limits assumed); assay: SPR (Biacore T200), His-tagged FcγR captured via anti-His IgG, antibody as analyte, steady-state
T1 construct: Bought protein; also called Fcγ RIIIb
Procedure: (§1) Binding assays were performed on a Biacore T200 instrument (Cytiva) at 25° C. using assay buffer HBS EP+supplemented with 500 mM NaCl. Fcγ receptors were captured via anti-penta his-tag IgGs (“His capture kit”, Order No. 2895056, Cytiva) covalently amine coupled to a Series S CM5 sensor chip (Cytiva). The amine coupling was carried out according to the manufacturer's instructions using 1-ethyl-3-(3-dimethylaminopropyl) carbodiimide hydrochloride (EDC), N-hydroxysuccinimide (NHS) and ethanolamine HCl, pH 8.5 (“Amine Coupling Kit” BR-1000-50, Cytiva.). Human Fcγ receptor I (R&D Systems, Order No. 1257-FC), Fcγ receptor IIa (R&D Systems, Order No. 1330-CD/F), Fcγ receptor IIb/c (R&D Systems, Order No. 1875-CD), Fcγ receptor IIIa (R&D Systems, Order No. 4325-FC) and Fcγ receptor IIIb (R&D Systems, Order No. 1597-FC) were captured to ˜30 RU.
(§2) Anti-CEACAM6 engineered antibodies were used as analytes in a concentration series from 0.04-25 μM in multi cycle kinetics mode. The sensor surface was regenerated with glycine pH 1.5 after each analyte injection. Obtained sensorgrams were double referenced (subtraction of reference flow cell signal and buffer injection) and were fitted to a 1:1 Langmuir binding model to derive steady-state affinity data using the Biacore T200 Evaluation software.

Human Fcγ receptor IIa [2] = target: T2, Human Fcγ receptor IIa (human, UniProt P12318 36-218, limits assumed); assay: as above
T2 construct: Bought protein; also called Fcγ RIIa
T2 sequence (looked up): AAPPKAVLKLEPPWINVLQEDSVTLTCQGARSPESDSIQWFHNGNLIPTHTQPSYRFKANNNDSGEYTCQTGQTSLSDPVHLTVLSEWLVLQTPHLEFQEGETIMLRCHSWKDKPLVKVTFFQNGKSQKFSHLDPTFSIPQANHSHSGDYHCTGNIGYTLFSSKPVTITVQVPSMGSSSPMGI
Procedure: as §1, §2

Human Fcγ receptor IIb/c [3] = target: T3, Human Fcγ receptor IIb/c (human, UniProt P31994 46-217); assay: as above
T3 construct: Bought protein; also called Fcγ RIIb/c
T3 sequence (looked up): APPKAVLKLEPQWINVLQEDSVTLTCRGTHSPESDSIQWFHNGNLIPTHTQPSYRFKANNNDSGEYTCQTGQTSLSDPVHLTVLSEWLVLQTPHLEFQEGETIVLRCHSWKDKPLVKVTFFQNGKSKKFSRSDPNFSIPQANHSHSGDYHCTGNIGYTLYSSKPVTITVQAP
Procedure: as §1, §2

Human Fcγ receptor I [4] = target: T4, Human Fcγ receptor I (human, UniProt P12314 16-288); assay: SPR (Biacore T200), His-tagged FcγR captured via anti-His IgG, antibody as analyte 0.04-25 µM, steady-state affinity
T4 construct: Bought protein; also called Fcγ RI
T4 sequence (P12314 16-288 limits assumed): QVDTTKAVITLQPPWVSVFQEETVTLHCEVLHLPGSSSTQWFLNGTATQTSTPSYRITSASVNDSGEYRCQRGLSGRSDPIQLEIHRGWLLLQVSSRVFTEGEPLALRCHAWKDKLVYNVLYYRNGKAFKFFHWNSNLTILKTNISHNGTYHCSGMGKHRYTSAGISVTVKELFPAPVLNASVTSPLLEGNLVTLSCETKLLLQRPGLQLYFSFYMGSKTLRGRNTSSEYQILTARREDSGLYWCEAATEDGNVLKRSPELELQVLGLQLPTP
Procedure: as §1, §2

Human Fcγ receptor IIIa [5] = target: T5, Human Fcγ receptor IIIa (human, UniProt P08637 17-208, limits assumed); assay: SPR (Biacore T200), His-tagged FcγR captured via anti-His IgG, antibody as analyte 0.04-25 µM, steady-state affinity; clear binding response
T5 construct: Bought protein; also called Fcγ RIIIa
T5 sequence (P08637 17-208 limits assumed): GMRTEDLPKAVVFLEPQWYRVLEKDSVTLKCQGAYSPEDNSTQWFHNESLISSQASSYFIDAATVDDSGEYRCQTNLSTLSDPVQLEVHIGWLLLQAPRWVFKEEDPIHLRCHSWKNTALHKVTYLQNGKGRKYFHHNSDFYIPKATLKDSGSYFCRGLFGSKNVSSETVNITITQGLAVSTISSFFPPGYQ
Procedure: as §1, §2

Human Fcγ receptor IIIb [6] = target: T1, Human Fcγ receptor IIIb; assay: SPR (Biacore T200), His-tagged FcγR captured via anti-His IgG, antibody as analyte, steady-state affinity
Procedure: as §1, §2

Human Fcγ receptor I [7] = target: T4, Human Fcγ receptor I; assay: as above
Procedure: as §1, §2

Human Fcγ receptor IIa [8] = target: T2, Human Fcγ receptor IIa; assay: as above
Procedure: as §1, §2

Human Fcγ receptor IIb/c [9] = target: T3, Human Fcγ receptor IIb/c; assay: as above
Procedure: as §1, §2

Human Fcγ receptor IIIa [10] = target: T5, Human Fcγ receptor IIIa; assay: as above
Procedure: as §1, §2

Human Fcγ receptor IIa [11] = target: T2, Human Fcγ receptor IIa; assay: SPR (Biacore T200), His-tagged FcγR captured via anti-His IgG, antibody as analyte 0.04-25 µM, steady-state affinity
Procedure: as §1, §2

Human Fcγ receptor IIIa [12] = target: T5, Human Fcγ receptor IIIa; assay: as above
Procedure: as §1, §2

Human Fcγ receptor IIIb [13] = target: T1, Human Fcγ receptor IIIb; assay: SPR (Biacore T200), His-tagged FcγR captured via anti-His IgG, antibody as analyte 0.04-25 µM, steady-state affinity; clear binding response
Procedure: as §1, §2

Human Fcγ receptor IIb/c [14] = target: T3, Human Fcγ receptor IIb/c; assay: as above
Procedure: as §1, §2

Human Fcγ receptor I [15] = target: T4, Human Fcγ receptor I; assay: SPR (Biacore T200), His-tagged FcγR captured via anti-His IgG, antibody as analyte 0.04-25 µM, steady-state affinity; Table 3 experiment (engineered Fc variants), steady-state affinity
Procedure: as §1, §2

[16] = target: T6, human CEACAM6 (carcinoembryonic antigen-related cell adhesion molecule 6) (human, UniProt P40199 35-320); assay: cell-based or functional assay
T6 sequence: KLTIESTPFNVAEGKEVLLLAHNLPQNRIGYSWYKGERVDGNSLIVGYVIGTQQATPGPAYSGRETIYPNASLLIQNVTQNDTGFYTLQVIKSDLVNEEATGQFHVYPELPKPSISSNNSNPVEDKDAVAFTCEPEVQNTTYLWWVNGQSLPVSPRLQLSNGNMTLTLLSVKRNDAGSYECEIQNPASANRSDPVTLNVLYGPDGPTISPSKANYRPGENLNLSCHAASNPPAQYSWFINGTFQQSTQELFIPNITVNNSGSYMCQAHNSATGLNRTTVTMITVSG

Human Fcγ receptor I [17] = target: T4, Human Fcγ receptor I; assay: SPR (Biacore T200), His-tagged FcγR captured via anti-His IgG, antibody as analyte, steady-state
Procedure: as §1, §2

Human Fcγ receptor IIIa [18] = target: T5, Human Fcγ receptor IIIa; assay: as above
Procedure: as §1, §2

T1 sequence (O75015 20-208 limits assumed): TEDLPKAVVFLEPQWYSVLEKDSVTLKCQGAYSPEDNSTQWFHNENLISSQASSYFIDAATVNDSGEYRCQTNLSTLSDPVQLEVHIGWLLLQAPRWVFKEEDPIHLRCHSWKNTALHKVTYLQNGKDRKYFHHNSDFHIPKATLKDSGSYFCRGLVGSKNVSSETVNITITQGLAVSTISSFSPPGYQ

B1: CEACAM6-Human IgG1-LALA (TPP-19919) (antibody)
heavy: not shown
light: DIQLTQSPSFLSASVGDRVTITCKASQNVGTAVAWYQQKPGKAPKLLIYSASNRYTGVPSRFSGSGSGTEFTLTISSLQPEDFATYYCQQYSSYPLTFGGGTKVEIKRTVAAPSVFIFPPSDEQLKSGTASVVCLLNNFYPREAKVQWKVDNALQSGNSQESVTEQDSKDSTYSLSSTLTLSKADYEKHKVYACEVTHQGLSSPVTKSFNRGEC
notes: Human IgG1 with L234A/L235A (EU numbering)
- binding result (Human Fcγ receptor IIIb [1]): no binding (tested: 0.04-25 µM)
- binding result (Human Fcγ receptor IIa [2]): no binding (tested: 0.04-25 µM)
- binding result (Human Fcγ receptor IIb/c [3]): no binding (tested: 0.04-25 µM)
- Kd (Human Fcγ receptor I [4]): 3.7 µM
- Kd (Human Fcγ receptor IIIa [5]): > 25 µM

B2: CEACAM6-Human IgG1 (TPP-5468) (antibody)
heavy: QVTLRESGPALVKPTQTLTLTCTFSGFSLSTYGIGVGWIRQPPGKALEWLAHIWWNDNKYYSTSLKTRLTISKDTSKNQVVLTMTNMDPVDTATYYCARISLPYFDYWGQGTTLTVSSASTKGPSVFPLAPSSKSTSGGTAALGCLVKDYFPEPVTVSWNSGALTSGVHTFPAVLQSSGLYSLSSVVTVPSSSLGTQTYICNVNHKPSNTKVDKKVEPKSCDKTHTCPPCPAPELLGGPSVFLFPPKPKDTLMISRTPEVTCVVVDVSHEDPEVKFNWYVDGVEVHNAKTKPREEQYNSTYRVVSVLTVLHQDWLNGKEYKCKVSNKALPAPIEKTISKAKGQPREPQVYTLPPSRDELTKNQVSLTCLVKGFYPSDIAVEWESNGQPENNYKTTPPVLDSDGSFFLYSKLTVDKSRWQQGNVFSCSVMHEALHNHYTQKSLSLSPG
light: DIQLTQSPSFLSASVGDRVTITCKASQNVGTAVAWYQQKPGKAPKLLIYSASNRYTGVPSRFSGSGSGTEFTLTISSLQPEDFATYYCQQYSSYPLTFGGGTKVEIKRTVAAPSVFIFPPSDEQLKSGTASVVCLLNNFYPREAKVQWKVDNALQSGNSQESVTEQDSKDSTYSLSSTLTLSKADYEKHKVYACEVTHQGLSSPVTKSFNRGEC
notes: expressed in HEK293 cells; also called hIgG1; anti-CEACAM6 human IgG1 format
- Kd (Human Fcγ receptor IIIb [6]): 7.4 µM
- Kd (Human Fcγ receptor I [7]): 0.32 µM
- Kd (Human Fcγ receptor IIa [8]): 7.3 µM
- Kd (Human Fcγ receptor IIb/c [9]): 11 µM
- Kd (Human Fcγ receptor IIIa [10]): 1 µM
- Kd (Human Fcγ receptor IIa [11]): 21 µM
- Kd (Human Fcγ receptor IIIa [12]): 4.9 µM
- Kd (Human Fcγ receptor IIIb [13]): > 25 µM
- Kd (Human Fcγ receptor IIb/c [14]): > 25 µM
- Kd (Human Fcγ receptor I [15]): 0.016 µM

B3: CEACAM6-Human IgG2 (TPP-3310) (antibody)
heavy: QVTLRESGPALVKPTQTLTLTCTFSGFSLSTYGIGVGWIRQPPGKALEWLAHIWWNDNKYYSTSLKTRLTISKDTSKNQVVLTMTNMDPVDTATYYCARISLPYFDYWGQGTTLTVSSASTKGPSVFPLAPCSRSTSESTAALGCLVKDYFPEPVTVSWNSGALTSGVHTFPAVLQSSGLYSLSSVVTVPSSNFGTQTYTCNVDHKPSNTKVDKTVERKCCVECPPCPAPPVAGPSVFLFPPKPKDTLMISRTPEVTCVVVDVSHEDPEVQFNWYVDGVEVHNAKTKPREEQFNSTFRVVSVLTVVHQDWLNGKEYKCKVSNKGLPAPIEKTISKTKGQPREPQVYTLPPSREEMTKNQVSLTCLVKGFYPSDIAVEWESNGQPENNYKTTPPMLDSDGSFFLYSKLTVDKSRWQQGNVFSCSVMHEALHNHYTQKSLSLSPG
light: DIQLTQSPSFLSASVGDRVTITCKASQNVGTAVAWYQQKPGKAPKLLIYSASNRYTGVPSRFSGSGSGTEFTLTISSLQPEDFATYYCQQYSSYPLTFGGGTKVEIKRTVAAPSVFIFPPSDEQLKSGTASVVCLLNNFYPREAKVQWKVDNALQSGNSQESVTEQDSKDSTYSLSSTLTLSKADYEKHKVYACEVTHQGLSSPVTKSFNRGEC
notes: Human IgG2; expressed in HEK293 cells
- TILs IFNgamma production (co-culture with HCC2935 tumor cells), EC50 [16]: 0.7 mg/L
- TILs mediated HCC2935 killing (xCELLigence impedance assay), EC50 [16]: 0.4 mg/L
- survivin specific T cells IFNgamma production (co-culture with HCC2935 tumor cells), EC50 [16]: 0.5 mg/L
- binding result (Human Fcγ receptor IIIb [1]): no binding (tested: Highest concentration used was 16 µM)
- binding result (Human Fcγ receptor I [17]): no binding (tested: Highest concentration used was 16 µM)
- binding result (Human Fcγ receptor IIa [2]): no binding (tested: Highest concentration used was 16 µM)

B4: CEACAM6-Human IgG1-LALAaglyco (TPP-21518) (antibody)
heavy: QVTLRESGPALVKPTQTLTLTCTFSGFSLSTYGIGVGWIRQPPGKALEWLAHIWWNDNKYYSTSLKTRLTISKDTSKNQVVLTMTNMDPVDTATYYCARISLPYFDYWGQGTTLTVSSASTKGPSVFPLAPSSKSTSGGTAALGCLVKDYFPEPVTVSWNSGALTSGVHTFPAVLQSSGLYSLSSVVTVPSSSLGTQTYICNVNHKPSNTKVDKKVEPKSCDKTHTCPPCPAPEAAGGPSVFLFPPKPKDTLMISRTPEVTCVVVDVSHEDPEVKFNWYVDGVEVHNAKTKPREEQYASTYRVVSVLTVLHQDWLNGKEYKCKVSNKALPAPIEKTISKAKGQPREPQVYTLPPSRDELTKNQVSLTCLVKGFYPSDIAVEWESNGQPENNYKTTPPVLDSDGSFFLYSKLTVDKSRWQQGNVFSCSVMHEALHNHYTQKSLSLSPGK
light: DIQLTQSPSFLSASVGDRVTITCKASQNVGTAVAWYQQKPGKAPKLLIYSASNRYTGVPSRFSGSGSGTEFTLTISSLQPEDFATYYCQQYSSYPLTFGGGTKVEIKRTVAAPSVFIFPPSDEQLKSGTASVVCLLNNFYPREAKVQWKVDNALQSGNSQESVTEQDSKDSTYSLSSTLTLSKADYEKHKVYACEVTHQGLSSPVTKSFNRGEC
notes: Human IgG1 with L234A/L235A/N297A (EU numbering); also called IgG1 LALAaglyco anti-CEACAM6 antibody
- TILs IFNgamma production (co-culture with HCC2935 tumor cells), EC50 [16]: 0.5 mg/L
- TILs mediated HCC2935 killing (xCELLigence impedance assay, 100 h), EC50 [16]: 0.43 mg/L
- survivin specific T cells IFNgamma production (co-culture with HCC2935 tumor cells), EC50 [16]: 0.55 mg/L
- binding result (Human Fcγ receptor IIIb [1]): no binding (tested: 0.04-25 µM)
- binding result (Human Fcγ receptor I [17]): no binding (tested: 0.04-25 µM)
- binding result (Human Fcγ receptor IIa [2]): no binding (tested: 0.04-25 µM)
- binding result (Human Fcγ receptor IIb/c [3]): no binding (tested: 0.04-25 µM)
- binding result (Human Fcγ receptor IIIa [18]): no binding (tested: 0.04-25 µM)

B5: CEACAM6-Human IgG1-aglyco (TPP-10914) (antibody)
heavy: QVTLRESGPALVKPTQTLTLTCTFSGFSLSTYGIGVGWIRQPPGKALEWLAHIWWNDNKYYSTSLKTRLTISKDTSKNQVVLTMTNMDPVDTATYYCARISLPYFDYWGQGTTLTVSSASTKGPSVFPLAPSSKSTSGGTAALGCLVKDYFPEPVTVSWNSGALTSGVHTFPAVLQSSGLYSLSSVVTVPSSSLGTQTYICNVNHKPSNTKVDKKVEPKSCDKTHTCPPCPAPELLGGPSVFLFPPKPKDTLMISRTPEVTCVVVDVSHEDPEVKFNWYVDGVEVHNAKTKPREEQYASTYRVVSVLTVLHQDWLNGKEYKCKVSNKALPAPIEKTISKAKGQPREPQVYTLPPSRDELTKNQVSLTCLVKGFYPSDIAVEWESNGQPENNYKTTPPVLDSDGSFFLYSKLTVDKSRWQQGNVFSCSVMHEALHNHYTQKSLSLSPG
light: DIQLTQSPSFLSASVGDRVTITCKASQNVGTAVAWYQQKPGKAPKLLIYSASNRYTGVPSRFSGSGSGTEFTLTISSLQPEDFATYYCQQYSSYPLTFGGGTKVEIKRTVAAPSVFIFPPSDEQLKSGTASVVCLLNNFYPREAKVQWKVDNALQSGNSQESVTEQDSKDSTYSLSSTLTLSKADYEKHKVYACEVTHQGLSSPVTKSFNRGEC
notes: Human IgG1 with N297A (EU numbering), aglycosylated
- binding result (Human Fcγ receptor IIIb [1]): no binding (tested: 0.04-25 µM)
- binding result (Human Fcγ receptor IIa [2]): no binding (tested: 0.04-25 µM)
- binding result (Human Fcγ receptor IIb/c [3]): no binding (tested: 0.04-25 µM)
- binding result (Human Fcγ receptor IIIa [18]): no binding (tested: 0.04-25 µM)
- Kd (Human Fcγ receptor I [4]): 1.2 µM
